Test results: publication PMC8159800

How the values were obtained:
[1] = target: C-C chemokine receptor type 5 (CCR5) with a C-terminal 1D4 epitope tag (human) (UniProt P51681)
[2] = target: C-C chemokine receptor type 5 (CCR5) with a C-terminal 1D4 epitope tag (human) (UniProt P51681); remark: listed apart in the source

Chain of UniProt P51681 (P51681 whole entry): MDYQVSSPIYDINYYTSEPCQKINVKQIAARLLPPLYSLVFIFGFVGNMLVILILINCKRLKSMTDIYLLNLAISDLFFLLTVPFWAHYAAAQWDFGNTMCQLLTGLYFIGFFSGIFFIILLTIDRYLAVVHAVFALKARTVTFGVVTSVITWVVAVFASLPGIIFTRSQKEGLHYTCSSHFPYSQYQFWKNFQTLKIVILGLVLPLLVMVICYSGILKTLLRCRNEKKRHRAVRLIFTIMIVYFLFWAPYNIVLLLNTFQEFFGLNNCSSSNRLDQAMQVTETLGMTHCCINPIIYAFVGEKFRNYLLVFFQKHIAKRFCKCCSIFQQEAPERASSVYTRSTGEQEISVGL
Chain of PSC-RANTES (P13501 24-91): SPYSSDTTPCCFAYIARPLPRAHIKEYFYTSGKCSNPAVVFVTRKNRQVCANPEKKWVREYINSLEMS

“PSC-RANTES (from UniProt P13501 24-91) (ligand)” gave an increase in intracellular Ca2+ (FLIPR Calcium 6 dye, mean RFU) of CCR5-transfected HEK293T cells on injection of 100 nM PSC-RANTES; no ATP pre-stimulation, no inhibitor [1] of 9900 RFU.
In the case of “regulated on activation, normal T cell expressed and secreted (RANTES) (from UniProt P13501 24-91) (ligand)”, the increase in intracellular Ca2+ (FLIPR Calcium 6 dye, mean RFU) of CCR5-transfected HEK293T cells on injection of 100 nM RANTES; buffer pre-injection, no inhibitor [2] is reported as 3830 RFU.
